Key:
W&Wlis cells [1] = assay: Measurement of intracellular ATP; type: cell-based, canine; details: linamarin (500 μg/ml) and/or glucose oxidase (5 mEU/ml), over time, versus untreated cells
Procedure: The levels of intracellular energy in the form of ATP decrease when a blockage of the mitochondrial electron transport chain occurs since it is the essential source of obtaining energy of the cells. […] This effect is due to the fact that the maximum H2O2 production by glucose oxidase occurs at short times because the cells have the ability of detoxifying the peroxide and due to the fact that glucose oxidase is inactivated over time by the serum proteins.
10^5 W&Wlis cells were seeded in test tubes with a screw-on cap and flat side (Nunc). After 24 hours, the medium was changed, adding linamarin (500 μg/ml) and glucose oxidase (5 mEU/ml) where appropriate. After 4, 8, 12, 24, 48 or 72 hours, the cells were centrifuged and processed following the instructions of the ATP Bioluminescence Assay Kit CLS II, of Roche Applied Science. The luminescence was analyzed with a Monolight 2010 luminometer (Analytical Luminescence Laboratory, San Diego) and expressed in relative light units (RLU).

W&Wlis cells [2] = assay: Determination of the extracellular peroxide concentration; type: cell-based, canine; details: 48 hours; 0.5 mg/ml of linamarin and/or 5 mEU/ml of glucose oxidase; control approximately 20 μM
Procedure: The H2O2 levels (FIG. 3B) produced extracellularly in the combined therapy were further studied in the invention. To do so, the amount of H2O2 present in the culture medium of W&Wlis cells at 48 hours in a treatment with 0.5 mg/ml of linamarin, in the presence of 5 mEU/ml of glucose oxidase or in the combination of both treatments, was analyzed although positive results were also obtained using other concentrations.
The samples to be analyzed were diluted in 1 ml of 0.1 M phosphate buffer pH 7.4. Then 3.7 EU/ml of peroxidase (Sigma-Aldrich, St. Louis, USA) and 0.1 mg/ml of ortho-dianisidine (Sigma-Aldrich, St. Louis, USA) were added. The samples were incubated at room temperature for 30 minutes and absorbances at 436 nm were determined. The H2O2 concentration was obtained by interpolation of the data obtained in a standard line performed with increasing concentrations of H2O2.

Swiss mice = assay: Toxicity of glucose oxidase in Swiss mice; type: in vivo; details: intraperitoneally and intravenously
Procedure: The toxicity of glucose oxidase was evaluated in Swiss mice weighing about 20 grams, intraperitoneally and intravenously inoculated with different amounts of the purified enzyme. […] This allowed establishing an optimal dose range for GO for the combined therapy in this type of animal.

W&Wlis cells [3] = assay: Structural modifications of the mitochondrion (pDsRed2-mito, confocal microscopy); type: cell-based, canine; details: linamarin 500 μg/ml from 48 hours; glucose oxidase 5 mEU/ml; combination after 24 hours
Procedure: For the purpose of studying the mitochondrial dynamics occurring as a result of the oxidative stress caused by the activity of the claimed system, W&Wlis cells were stably transfected with the plasmid pdsRed2-mito (Clontech) containing the gene of the one red fluorescent protein carried by a transport signal peptide to the mitochondrion. This allowed viewing the mitochondria of cells treated with linamarin and glucose oxidase by fluorescence microscopy. […] This effect starts to be observed 48 hours after treatment with linamarin (FIG. 1B) and becomes more pronounced after 72 hours, a slight swelling of the fragments (FIG. 1C) being observed.
To study the structural modifications of the mitochondrion during therapy, the W&W and W&Wlis cells were transfected with the plasmid pDsRed2-mito (Clontech, BD Bioscience) containing the gene of a red fluorescent protein which is expressed exclusively in mitochondria. The transfection was performed similarly to the previous section and clones were selected by resistance to neomycin (0.75 and 1.5 mg/ml respectively). The cells from stable expression clones of the protein were seeded in multiwell plates on cover slips (2.5×10^4) and were treated with linamarin (50, 200 or 500 μg/ml) and glucose oxidase (5 mEU/ml). After the suitable incubation time for each experiment (24, 48 or 72 hours) elapsed, the cells were fixed with 4% paraformaldehyde. […]

W&Wlis cells [4] = assay: DNA content analysis by flow cytometry, labeling with propidium iodide; type: cell-based, canine; design: unit not given here; details: 0 μg lin, 5 mEU/ml GO
W&Wlis cells [5] = assay: AIF location study by immunofluorescence; type: cell-based, canine; details: 5 mEU/ml glucose oxidase, with or without 500 μg/ml linamarin
Procedure: Nevertheless, the activation of AIF could be caused by a mechanism that is PARP-1-independent (Cregan, 2004). AIF is a protein residing in the mitochondrion and when activated, it translocates to the nucleus in which it activates apoptosis. The possible translocation of AIF was analyzed by immunofluorescence with antibodies specific against AIF of W&Wlis cells treated with the therapy.
The cells were seeded on cover slips in 24-well plates and were treated according to the requirements of each experiment. After the appropriate incubation time for each assay, the cells were fixed with 4% paraformaldehyde for 30 minutes at room temperature or methanol at −20° C. for 10 minutes. The samples were subsequently permeabilized 10 minutes with PBS supplemented with triton X-100 or 0.1% sodium dodecyl sulfate (SDS) and were blocked by incubating for 30 minutes with PBS with 0.1% triton X-100 and with 1% bovine serum albumin, or PBS with 0.01% SDS and a 10% fetal calf serum. They were subsequently incubated for 45 minutes with the primary antibody at room temperature or overnight at 4° C. The antibodies used were anti-linamarase (1/200, supplied by Monica Hughes) and anti-AIF (1/50, Cell Signaling Technology). The secondary antibody used was anti-rabbit IgG coupled to fluorescein (1/50, Amersham Pharmacia Biotech). […]

W&Wlis cells [6] = assay: Analysis of the type of death by flow cytometry (annexin V-FITC/propidium iodide); type: cell-based, canine
Procedure: The annexin V-FITC and propidium iodide assay was performed in parallel by flow cytometry. The pattern of death of the system was analyzed when adding 5 mEU/ml of glucose oxidase and the combined therapy (5 mEU/ml of GO and 500 μg/ml of linamarin) at 48 hours, followed by the control of untreated cells and of the cells incubated with 500 μg/ml of linamarin at 96 hours. Furthermore, another group of cells was subjected to the same conditions except 10 mM of N-acetyl cysteine (NAC) were added. The cells treated with the combined therapy were subsequently studied at 48 hours in the absence and presence of 100 μM of Z-VAD-fmk, followed by the control of treatment of the cells with UV in the same conditions. Finally, the cells treated with the combined therapy were shown at 48 hours in the absence and presence of 300 μM of 1,5-isoquinolinediol (DIQ), observing that the pattern of death is not modified when PARP-1 is inhibited (FIG. 4).
10^5 W&Wlis cells were seeded in test tubes with a screw-on cap and flat side (Nunc). After 24 hours, different amounts of linamarin (50, 200 or 500 μg/ml) and glucose oxidase (5 mEU/ml) were added in the specified cases. In the appropriate assays, the medium was supplemented with N-acetyl cysteine (10 mM), 1,5-isoquinolinediol (300 μM) or Z-VAD-fmk (100 μM). […] They were centrifuged for 5 minutes at 1200 rpm and the cell precipitate was washed first with PBS and then with binding buffer (0.1 M Hepes/NaOH pH 7.4, 1.4 M NaCl and 25 mM CaCl2). The cells were again precipitated and resuspended in 100 μl of binding buffer supplemented with 5 μl of annexin V-FITC and 2.5 μg/ml of propidium iodide. The samples were incubated for 15 minutes in the dark. Data acquisition and analysis was carried out by means of a FACSCalibur flow cytometer (DB Biosciences) with the Cell Quest program.

[7] = 0 μg lin, 5 mEU/ml GO, 48 hours, NAC (10 mM)
[8] = Table 4, 0 μg lin, 5 mEU/ml GO, 48 hours, Z-VAD-fmk (100 μM)
[9] = Table 4, 0 μg lin, 5 mEU/ml GO, 48 hours, control (no Z-VAD-fmk)
[10] = Table 5, GO, 32 hours, DIQ (300 μM)
[11] = Table 5, GO, 32 hours, control (no DIQ)
[12] = Table 5, GO, 48 hours, DIQ (300 μM)
[13] = Table 5, GO, 48 hours, control (no DIQ)

B1: GO: glucose oxidase enzyme catalyzing the conversion of glucose into gluconic acid, generating hydrogen peroxide (protein, UniProt P13006 17-605, looked up)
Glucose oxidase: LPHYIRSNGIEASLLTDPKDVSGRTVDYIIAGGGLTGLTTAARLTENPNISVLVIESGSYESDRGPIIEDLNAYGDIFGSSVDHAYETVELATNNQTALIRSGNGLGGSTLVNGGTWTRPHKAQVDSWETVFGNEGWNWDNVAAYSLQAERARAPNAKQIAAGHYFNASCHGVNGTVHAGPRDTGDDYSPIVKALMSAVEDRGVPTKKDFGCGDPHGVSMFPNTLHEDQVRSDAAREWLLPNYQRPNLQVLTGQYVGKVLLSQNGTTPRAVGVEFGTHKGNTHNVYAKHEVLLAAGSAVSPTILEYSGIGMKSILEPLGIDTVVDLPVGLNLQDQTTATVRSRITSAGAGQGQAAWFATFNETFGDYSEKAHELLNTKLEQWAEEAVARGGFHNTTALLIQYENYRDWIVNHNVAYSELFLDTAGVASFDVWDLLPFTRGYVHILDKDPYLHHFAYDPQYFLNELDLLGQAAATQLARNISNSGAMQTYFAGETIPGDNLAYDADLSAWTEYIPYHFRPNYHGVGTCSMMPKEMGGVVDNAARVYGVQGLRVIDGSIPPTQMSSHVMTVFYAMALKISDAILEDYASMQ
With B1 the “intracellular ATP levels” value (W&Wlis cells [1]) was “moderate and transitory reduction of ATP after 6 hours”, the “extracellular H2O2 concentration in the culture medium” value (W&Wlis cells [2]) was “did not cause significant variations” and the toxicity (Swiss mice; daily doses between 0.25 and 0.1 EU/g) was “no harmful effect”. For the same molecule, the toxicity (Swiss mice; doses of 1 and 0.5 EU/g, first 24 hours post-administration) was “lethal effect”, the mitochondrial pattern (W&Wlis cells [3]) was “did not cause any structural change in most of the mitochondria” and the “DNA content by flow cytometry, labeling with propidium iodide” value (W&Wlis cells [4]; 24 hours) was 1.94. The “DNA content by flow cytometry, labeling with propidium iodide” value (W&Wlis cells [4]; 48 hours) was 1.03, the AIF location (W&Wlis cells [5]) was “typically mitochondrial AIF pattern” and the Apoptosis (W&Wlis cells [6]; 0 μg lin, 5 mEU/ml GO, 24 h) was 5.98. The Necrosis (W&Wlis cells [6]; 0 μg lin, 5 mEU/ml GO, 24 h) was 12.27, the Apoptosis (W&Wlis cells [6]; 0 μg lin, 5 mEU/ml GO, 48 h) was 8.34 and the Necrosis (W&Wlis cells [6]; 0 μg lin, 5 mEU/ml GO, 48 h) was 4.50. It also gave an Apoptosis (W&Wlis cells [6]; [7]) of 5.98, a Necrosis (W&Wlis cells [6]; [7]) of 5.42 and an Apoptosis (W&Wlis cells [6]; [8]) of 13.94. It also gave a Necrosis (W&Wlis cells [6]; [8]) of 18.92, an Apoptosis (W&Wlis cells [6]; [9]) of 3.27 and a Necrosis (W&Wlis cells [6]; [9]) of 29.59. For the same molecule, the Apoptosis (W&Wlis cells [6]; [10]) was 9.32, the Necrosis (W&Wlis cells [6]; [10]) was 16.69 and the Apoptosis (W&Wlis cells [6]; [11]) was 6.50. It also gave a Necrosis (W&Wlis cells [6]; [11]) of 27.11, an Apoptosis (W&Wlis cells [6]; [12]) of 17.52 and a Necrosis (W&Wlis cells [6]; [12]) of 20.89. It also gave an Apoptosis (W&Wlis cells [6]; [13]) of 12.92 and a Necrosis (W&Wlis cells [6]; [13]) of 31.87.
